What was measured:
[1] = target: T1, human GPR116 with C-terminal fused FLAG, stably overexpressed (human, UniProt Q8IZF2 22-1346); experiment: flow cytometry on cells; saturation binding of FcsFNDC4 or Fc control on HEK293A cells with stable human GPR116-FLAG OE or mock cells; 4 °C, PBS with 3% FBS; anti-human IgG-PE; Kd from total binding; settings: one partner purified
T1 construct: human GPR116, recombined from the pEntry1a GPR116 plasmid into plenti6/V5 DEST; Same construct in two HEK293 lines; also called GPR116 OE; HEK293T GPR116 (human) OE cells; not shown: FLAG, C-terminal, kept
T1 sequence (looked up): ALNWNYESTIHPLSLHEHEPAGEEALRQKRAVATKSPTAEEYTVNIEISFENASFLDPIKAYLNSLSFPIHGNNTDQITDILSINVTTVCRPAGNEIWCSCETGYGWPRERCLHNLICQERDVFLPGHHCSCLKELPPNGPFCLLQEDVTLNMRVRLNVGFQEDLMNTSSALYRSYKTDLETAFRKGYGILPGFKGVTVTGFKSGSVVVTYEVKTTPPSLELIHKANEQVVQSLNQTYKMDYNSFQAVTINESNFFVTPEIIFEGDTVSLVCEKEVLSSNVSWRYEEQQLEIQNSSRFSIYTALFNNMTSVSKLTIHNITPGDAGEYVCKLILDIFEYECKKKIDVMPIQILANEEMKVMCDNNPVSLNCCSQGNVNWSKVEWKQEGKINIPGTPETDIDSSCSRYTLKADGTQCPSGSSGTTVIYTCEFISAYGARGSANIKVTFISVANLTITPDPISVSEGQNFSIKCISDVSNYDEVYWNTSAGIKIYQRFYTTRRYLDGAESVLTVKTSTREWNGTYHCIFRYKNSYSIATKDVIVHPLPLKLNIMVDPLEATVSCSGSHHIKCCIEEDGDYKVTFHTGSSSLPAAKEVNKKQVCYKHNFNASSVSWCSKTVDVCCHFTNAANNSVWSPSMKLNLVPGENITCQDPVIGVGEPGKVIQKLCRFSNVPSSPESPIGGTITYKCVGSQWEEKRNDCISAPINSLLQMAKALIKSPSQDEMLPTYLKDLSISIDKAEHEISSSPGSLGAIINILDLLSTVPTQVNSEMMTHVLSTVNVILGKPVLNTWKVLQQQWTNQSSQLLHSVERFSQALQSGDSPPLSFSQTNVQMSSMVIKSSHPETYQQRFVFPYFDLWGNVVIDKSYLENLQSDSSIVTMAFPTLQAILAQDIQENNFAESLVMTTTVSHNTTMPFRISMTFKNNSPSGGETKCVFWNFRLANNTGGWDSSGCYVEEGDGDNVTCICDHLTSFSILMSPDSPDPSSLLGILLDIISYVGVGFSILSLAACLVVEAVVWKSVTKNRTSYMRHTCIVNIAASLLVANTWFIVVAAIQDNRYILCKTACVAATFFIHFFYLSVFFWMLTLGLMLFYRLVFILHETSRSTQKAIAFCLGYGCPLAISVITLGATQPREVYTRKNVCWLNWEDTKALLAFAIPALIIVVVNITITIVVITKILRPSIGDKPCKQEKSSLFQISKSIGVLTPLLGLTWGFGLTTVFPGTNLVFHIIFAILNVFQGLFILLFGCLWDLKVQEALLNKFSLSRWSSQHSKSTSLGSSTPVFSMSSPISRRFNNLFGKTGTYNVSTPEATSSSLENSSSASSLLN

[2] = target: T1, human GPR116 with C-terminal fused …; experiment: flow cytometry on cells; saturation binding of FcsFNDC4 or Fc control on HEK293T cells with stable human GPR116-FLAG OE or mock cells; also in excess of sFNDC4 (1 mM) for non-specific binding; 4 °C, PBS with 3% FBS; anti-human IgG-PE; Kd from specific binding; settings: one partner purified

B1: 6xHis-Fc-sFNDC4 fusion protein (extracellular part of mouse FNDC4 fused with human IgG Fc) (Fc fusion)
chain: RPPSPVNVTVTHLRANSATVSWDVPEGNIVIGYSISQQRQNGPGQRVIREVNTTTRACALWGLAEDSDYTVQVRSIGLRGESPPGPRVHFRTLKGSDRLPSNSSSPGDITVEGLDGERPLQTGE
notes: extracellular part of mouse FNDC4 (sFNDC4), stated as aa 40-160; also called FcFNDC4; FcsF4; not shown: 6xHis, N-terminal, kept; Fc (human IgG), N-terminal, kept
Kd [1]: 33 ± 10 nM
Kd [2]: 25 ± 5 nM

Reference: publication PMC8137956, “Orphan GPR116 mediates the insulin sensitizing effects of the hepatokine FNDC4 in adipose tissue” (Nature Communications, 2021)
